Measured values reported in patent US20160264649A1.

How the values were obtained:
Experiment in all cases: cell-based or functional assay
[1] = target: HIV-1 92RW008 Env (HIV-1)
[2] = target: HIV-1 92RW009 Env (HIV-1)
[3] = target: HIV-1 92RW020 Env (HIV-1)
[4] = target: HIV-1 92RW021 Env (HIV-1)
[5] = target: HIV-1 92UG031 Env (HIV-1)
[6] = target: HIV-1 93RW029 Env (HIV-1)
[7] = target: HIV-1 93UG077 Env (HIV-1)
[8] = target: HIV-1 94KE105 Env (HIV-1)
[9] = target: HIV-1 94UG103 Env (HIV-1)
[10] = target: HIV-1 MGRM-A-002 Env (HIV-1)
[11] = target: HIV-1 MGRM-A-003 Env (HIV-1)
[12] = target: HIV-1 MGRM-A-004 Env (HIV-1)
[13] = target: HIV-1 MGRM-A-005 Env (HIV-1)
[14] = target: HIV-1 MGRM-A-006 Env (HIV-1)
[15] = target: HIV-1 MGRM-A-007 Env (HIV-1)
[16] = target: HIV-1 MGRM-A-009 Env (HIV-1)
[17] = target: HIV-1 MGRM-A-010 Env (HIV-1)
[18] = target: HIV-1 MGRM-A-012 Env (HIV-1)
[19] = target: HIV-1 MGRM-A-013 Env (HIV-1)
[20] = target: HIV-1 MGRM-A-014 Env (HIV-1)
[21] = target: HIV-1 VLGCA1 Env (HIV-1)
[22] = target: HIV-1 Env of isolate 92UG024 (subtype D) (HIV-1)
[23] = target: HIV-1 Env of isolate 92UG031 (subtype A) (HIV-1)
[24] = target: HIV-1 Env of isolate 93IN905 (subtype C) (HIV-1)
[25] = target: HIV-1 Env of isolate 93WR029 (subtype A) (HIV-1)
[26] = target: HIV-1 Env of isolate 98IN022 (subtype C) (HIV-1)
[27] = target: HIV-1 Env of isolate APV_17 (subtype B) (HIV-1)
[28] = target: HIV-1 Env of isolate JRCSF (subtype B) (HIV-1) (UniProt P20871)
[29] = target: HIV-1 Env of isolate MG RM-C-023 (subtype C) (HIV-1)
[30] = target: HIV-1 Env of isolate MG RM-C-025 (subtype C) (HIV-1)
[31] = target: HIV-1 Env of isolate MG RM-C-026 (subtype C) (HIV-1)
[32] = target: HIV-1 Env of isolate MGRM-AE-004 (subtype AE) (HIV-1)
[33] = target: HIV-1 Env of isolate MGRM-AE-008 (subtype AE) (HIV-1)
[34] = target: HIV-1 Env of isolate MGRM-Chronic-B-002 (subtype B) (HIV-1)
[35] = target: HIV-1 Env of isolate MGRM-Chronic-B-004 (subtype B) (HIV-1)
[36] = target: HIV-1 Env of isolate MGRM-Chronic-B-017 (subtype B) (HIV-1)
[37] = target: HIV-1 Env of isolate MGRM-Chronic-B-023 (subtype B) (HIV-1)
[38] = target: HIV-1 Env of isolate MGRM-D-004 (subtype D) (HIV-1)
[39] = target: HIV-1 Env of isolate MGRM-D-005 (subtype D) (HIV-1)
[40] = target: HIV-1 Env of isolate MGRM-D-014 (subtype D) (HIV-1)
[41] = target: HIV-1 Env of isolate MGRM-D-024 (subtype D) (HIV-1)
[42] = target: HIV-1 Env of isolate MGRM-F1-018 (subtype F) (HIV-1)
[43] = target: HIV-1 Env of isolate MGRM-F1-020 (subtype F) (HIV-1)
[44] = target: HIV-1 Env of isolate THR0.18 (subtype B) (HIV-1)
[45] = target: HIV-1 Env of isolate VLGCA1 (subtype A) (HIV-1)
[46] = target: HIV-1 Env of isolate VLGCB3 (subtype B) (HIV-1)
[47] = target: HIV-1 Env of pseudovirus isolate MGRM-G-001 (subtype G) (HIV-1)
[48] = target: HIV-1 Env of pseudovirus isolate MGRM-G-024 (subtype G) (HIV-1)
[49] = target: HIV-1 Env of pseudovirus isolate MGRM-G-027 (subtype G) (HIV-1)
[50] = target: HIV-1 Env of pseudovirus isolate MGRM-G-028 (subtype G) (HIV-1)

Substance: 2F5 (antibody)
- neutralization IC50 [1]: 10.4 mg/L
- neutralization IC50 [2]: 39.1 mg/L
- neutralization IC50 [3]: 3.36 mg/L
- neutralization IC50 [4]: 4.16 mg/L
- neutralization IC50 [5]: 3.81 mg/L
- neutralization IC50 [6]: > 50 mg/L
- neutralization IC50 [7]: 3.3 mg/L
- neutralization IC50 [8]: > 50 mg/L
- neutralization IC50 [9]: 1.92 mg/L
- neutralization IC50 [10]: > 50 mg/L
- neutralization IC50 [11]: 7.37 mg/L
- neutralization IC50 [12]: 7.49 mg/L
- neutralization IC50 [13]: 5.7 mg/L
- neutralization IC50 [14]: 15.7 mg/L
- neutralization IC50 [15]: 16.3 mg/L
- neutralization IC50 [16]: 9.4 mg/L
- neutralization IC50 [17]: 20.8 mg/L
- neutralization IC50 [18]: 2.36 mg/L
- neutralization IC50 [19]: 0.66 mg/L
- neutralization IC50 [20]: 1.43 mg/L
- neutralization IC50 [21]: 3.9 mg/L

Substance: 2G12 (antibody)
- neutralization IC50 [1]: 22.5 mg/L
- neutralization IC50 [2]: 26.1 mg/L
- neutralization IC50 [3]: 0.48 mg/L
- neutralization IC50 [4]: > 50 mg/L
- neutralization IC50 [5]: > 50 mg/L
- neutralization IC50 [6]: > 50 mg/L
- neutralization IC50 [7]: > 50 mg/L
- neutralization IC50 [8]: 7.22 mg/L
- neutralization IC50 [9]: 48.1 mg/L
- neutralization IC50 [10]: > 50 mg/L
- neutralization IC50 [11]: > 50 mg/L
- neutralization IC50 [12]: > 50 mg/L
- neutralization IC50 [13]: > 50 mg/L
- neutralization IC50 [14]: 13.8 mg/L
- neutralization IC50 [15]: > 50 mg/L
- neutralization IC50 [16]: 7.47 mg/L
- neutralization IC50 [17]: 17 mg/L
- neutralization IC50 [18]: > 50 mg/L
- neutralization IC50 [19]: > 50 mg/L
- neutralization IC50 [20]: > 50 mg/L
- neutralization IC50 [21]: > 50 mg/L

Substance: 1496_C09 (PG9) (TCN-109) (antibody)
- neutralization IC50 [1]: 0.01 mg/L
- neutralization IC50 [2]: 0.03 mg/L
- neutralization IC50 [3]: 0.08 mg/L
- neutralization IC50 [4]: 0.05 mg/L
- neutralization IC50 [5]: 3.08 mg/L
- neutralization IC50 [6]: 1.19 mg/L
- neutralization IC50 [8]: 29.6 mg/L
- neutralization IC50 [9]: 0.24 mg/L
- neutralization IC50 [11]: 0.65 mg/L
- neutralization IC50 [15]: 0.37 mg/L
- neutralization IC50 [16]: 0.03 mg/L
- neutralization IC50 [18]: 11.2 mg/L
- neutralization IC50 [19]: 0.16 mg/L
- neutralization IC50 [20]: 0.62 mg/L
- neutralization IC50 [21]: 0.07 mg/L
- IC50 (neutralization) [22]: 1.86 mg/L
- IC50 (pseudovirus neutralization) [23]: 3.6 mg/L
- IC50 (µg/mL), pseudovirus neutralization [24]: 0.035 µg/mL
- IC50 (pseudovirus neutralization) [25]: 0.69 mg/L
- IC50 (µg/mL), pseudovirus neutralization [26]: 0.003 µg/mL
- IC50 [27]: 34.8 mg/L
- IC50 (µg/mL), pseudovirus neutralization [28]: 0.003 µg/mL
- IC50 (µg/mL), pseudovirus neutralization [29]: 0.614 µg/mL
- IC50 (µg/mL), pseudovirus neutralization [30]: 0.148 µg/mL
- IC50 (µg/mL), pseudovirus neutralization [31]: 0.06 µg/mL
- IC50 (pseudovirus neutralization) [32]: 0.009 mg/L
- IC50 (pseudovirus neutralization) [33]: 31.5 mg/L
- IC50 [34]: 3.44 mg/L
- IC50 [35]: 0.533 mg/L
- IC50 [36]: 0.688 mg/L
- IC50 [37]: 0.027 mg/L
- IC50 (pseudovirus neutralization) [38]: 0.06 mg/L
- IC50 (pseudovirus neutralization) [39]: 1.8 mg/L
- IC50 (pseudovirus neutralization) [40]: 0.023 mg/L
- IC50 (pseudovirus neutralization) [41]: 0.038 mg/L
- IC50 (pseudovirus neutralization) [42]: 0.019 mg/L
- IC50 (pseudovirus neutralization) [43]: 6.4 mg/L
- IC50 (µg/mL), pseudovirus neutralization [44]: 26.4 µg/mL
- IC50 (pseudovirus neutralization) [45]: 0.069 mg/L
- IC50 (µg/mL), pseudovirus neutralization [46]: 0.022 µg/mL
- IC50 [47]: 0.166 mg/L
- IC50 [48]: 0.163 mg/L
- IC50 [49]: 0.007 mg/L
- IC50 [50]: 0.891 mg/L

Substance: PGV04 (antibody)
- IC50 (neutralization) [22]: 0.201 mg/L
- IC50 (pseudovirus neutralization) [23]: 4.46 mg/L
- IC50 (µg/mL), pseudovirus neutralization [24]: 0.332 µg/mL
- IC50 (pseudovirus neutralization) [25]: 0.54 mg/L
- IC50 (µg/mL), pseudovirus neutralization [26]: 5.69 µg/mL
- IC50 [27]: 0.309 mg/L
- IC50 (µg/mL), pseudovirus neutralization [28]: 0.078 µg/mL
- IC50 (µg/mL), pseudovirus neutralization [29]: 0.128 µg/mL
- IC50 (µg/mL), pseudovirus neutralization [30]: > 50 µg/mL
- IC50 (µg/mL), pseudovirus neutralization [31]: 0.303 µg/mL
- IC50 (pseudovirus neutralization) [32]: 0.183 mg/L
- IC50 (pseudovirus neutralization) [33]: 1.51 mg/L
- IC50 [34]: 0.142 mg/L
- IC50 [35]: 0.047 mg/L
- IC50 [36]: 0.129 mg/L
- IC50 [37]: 0.139 mg/L
- IC50 (pseudovirus neutralization) [38]: 43.2 mg/L
- IC50 (pseudovirus neutralization) [39]: > 50 mg/L
- IC50 (pseudovirus neutralization) [40]: 0.194 mg/L
- IC50 (pseudovirus neutralization) [41]: > 50 mg/L
- IC50 (pseudovirus neutralization) [42]: 0.027 mg/L
- IC50 (pseudovirus neutralization) [43]: 5.99 mg/L
- IC50 (µg/mL), pseudovirus neutralization [44]: > 50 µg/mL
- IC50 (pseudovirus neutralization) [45]: 0.024 mg/L
- IC50 (µg/mL), pseudovirus neutralization [46]: 0.045 µg/mL
- IC50 [47]: > 50 mg/L
- IC50 [48]: 0.033 mg/L
- IC50 [49]: 0.125 mg/L
- IC50 [50]: 0.352 mg/L

Substance: VRC01 (antibody)
- IC50 (neutralization) [22]: 0.576 mg/L
- IC50 (pseudovirus neutralization) [23]: 0.469 mg/L
- IC50 [24]: 0.138 mg/L
- IC50 (pseudovirus neutralization) [25]: 1.57 mg/L
- IC50 [26]: 0.342 mg/L
- IC50 [27]: 0.477 mg/L
- IC50 [28]: 0.164 mg/L
- IC50 [29]: 0.077 mg/L
- IC50 [30]: 2.36 mg/L
- IC50 [31]: 0.707 mg/L
- IC50 (pseudovirus neutralization) [32]: 0.187 mg/L
- IC50 (pseudovirus neutralization) [33]: 1.72 mg/L
- IC50 [34]: 0.117 mg/L
- IC50 [35]: 0.055 mg/L
- IC50 [36]: 0.141 mg/L
- IC50 [37]: 0.275 mg/L
- IC50 (pseudovirus neutralization) [38]: 1.25 mg/L
- IC50 (pseudovirus neutralization) [39]: > 50 mg/L
- IC50 (pseudovirus neutralization) [40]: 0.332 mg/L
- IC50 (pseudovirus neutralization) [41]: 0.366 mg/L
- IC50 (pseudovirus neutralization) [42]: 0.032 mg/L
- IC50 (pseudovirus neutralization) [43]: 1.89 mg/L
- IC50 [44]: 2.46 mg/L
- IC50 (pseudovirus neutralization) [45]: 0.163 mg/L
- IC50 [46]: 0.108 mg/L
- IC50 [47]: 0.0371 mg/L
- IC50 [48]: 0.025 mg/L
- IC50 [49]: 0.36 mg/L
- IC50 [50]: 0.164 mg/L
